Source: patent US20250066503A1, “CELL INJURY INDUCING THERAPEUTIC DRUG FOR USE IN CANCER THERAPY” (CHUGAI SEIYAKU KABUSHIKI KAISHA, priority 2016, published 2025)

How the values were obtained:
[1] = test system: cell lines derived from various cancer types (GPC3-expressing target cells); experiment: TDCC activity by LDH release test with human PBMCs as effector cells; format: cell-based; conditions: about 24 hours
Description: TDCC activity of each test antibody was measured by the method described below. Human peripheral blood mononuclear cells (hereinafter referred to as human PBMCs) were used as effector cells and TDCC activity of each test antibody was measured as follows.
50 ml of peripheral blood was collected from a healthy person in Chugai Pharmaceutical Co. Ltd. using a syringe pre-loaded with 500 μl of 5000 units/5 ml heparin solution. The peripheral blood diluted two-fold with PBS was divided into four aliquots and added to Leucosep tubes for lymphocyte separation (GE Healthcare) which had been loaded with 15 ml of Ficoll-Paque PLUS and centrifuged in advance. […]
TDCC activity was assessed by an LDH release method (LDH Cytotoxicity Detection Kit, TAKARA). […] The absorbance at 490 to 492 nm was measured with a plate reader. The reference wavelength used was 600 to 620 nm, and the absorbance was subtracted from that at 490 to 492 nm. […]
Cytotoxic activity was determined based on this equation.
Here, A represents the absorbance of a mixture of target cells, effector cells, and antibody; B represents the absorbance of effector cells; C represents the absorbance of target cells; and D represents the absorbance of target cells with Triton X-100 added.

NCI-H446 tumor tissues = experiment: Histopathological evaluation of HE-stained tumor tissues; format: in vivo, humanized NOG mice
Description: The tumor samples were prepared as follows. The tumor samples when antibody-38 was used in combination with a chemotherapeutic agent in the humanized NOG mouse model were prepared by the procedure described below. 2.5 Gy of X ray was irradiated to NOG mice (In-Vivo Science Inc., Y). On the following day, 1×10^5 CD34-positive hematopoietic stem cells which are derived from umbilical cord blood were transplanted into the NOG mice by tail vein injection. After 16 to 20 weeks, each of human cancer cell lines (MKN45 and NCI-H446) was mixed with Matrigel™ Basement Membrane Matrix, and transplanted subcutaneously into the humanized NOG mice. The day of transplantation was defined as Day 0.
When tumor was established, the mice were separated into groups based on tumor size and body weight. Antibody-38 and the pharmaceutical agents for use in combination were administered according to the dose and dosing regimen described in Table 21. The mice were euthanized at the timing described in Table 21, and tumor was excised and preserved for use in tumor infiltrating lymphocyte (TIL) analysis, pathological analysis, or RNA analysis.
With respect to histological analysis of tumor tissues, tumor samples from mice six days after administration of antibody-38 and paclitaxel were fixed in 10% formaldehyde neutral buffer solution. […]

PC-10 xenograft tumor = experiment: In vivo drug efficacy, humanized NOG mouse model; design: species or system humanized NOG mice; conditions: 0.008, 0.04, 0.2, or 1 mg/kg once through the tail vein, compared to the vehicle-administered group
Description: Methods called an NOD scid/T cell-injected model, a humanized NOG mouse model, and a human CD3εδγ gene-modified mouse model were used in the in vivo drug efficacy evaluation. Assay using an NOD scid/T cell-injected model was performed as follows. […] T cells expanded by culturing human PBMCs in vitro were injected into the NOD scid mice with confirmed tumor establishment. The mice were treated by administering bispecific antibody-38 and bispecific antibody-30, -31, -32, or -33. Assay using a humanized NOG mouse model was performed as follows. CD34-positive hematopoietic stem cells derived from umbilical cord blood were transplanted into NOG mice by tail vein injection. Human T cells are constantly supplied in the mice, which are called humanized NOG mice. The PC-10 cell line was transplanted into humanized NOG mice. The humanized NOG mice with confirmed establishment of PC-10 tumor were treated by administering antibody-38. Assay using a human CD3εδγ gene-modified mouse model was performed as follows. Cells of mouse-derived cell line forced to express human GPC3 were transplanted into a human CD3εδγ gene-modified mouse model, which had been prepared according to Reference Example 10. The human CD3εδγ gene-modified mice with confirmed tumor establishment were treated by administering antibody-38. […]

B1: antibody-38: anti-human CD3ε chain and anti-human GPC3 bispecific antibody; H chains SEQ ID NO: 385 and 402, common L chains SEQ ID NO: 410 (antibody)
heavy 1: QVQLVQSGAEVKKPGASVTVSCKASGYTFTDYEMHWIRQPPGEGLEWIGAIDGPTPDTAYSEKFKGRVTLTADKSTSTAYMELSSLTSEDTAVYYCTRFYSYTYWGQGTLVTVSSASTKGPSVFPLAPCSRSTSESTAALGCLVKDYFPEPVTVSWNSGALTSGVHTFPAVLQSSGLYSLSSVVTVPSSSLGTQTYTCNVDHKPSNTKVDKRVESKYGPPCPPCPAPEFRGGPKVFLFPPKPKDTLMISRTPEVTCVVVDVSQEDPEVQFNWYVDGVEVHNAKTKPREEQFASTYRVVSVLTVLHQDWLNGKEYKCKVSNKGLPSSIEKTISKAKGQPREPQVYTLPPSQEEMTKNQVSLTCLVKGFYPSDIAVEWESNGQPENNYKTTPPVLDSDGSFFLYSKLTVDKSRWQEGNVFSCSVMHEALHNHYTQESLSLSP
heavy 2: QVQLVESGGGVVQPGGSLRLSCAASGFTFSNAWMHWVRQAPGKGLEWVAQIKDKSQNYATYVAESVKGRFTISRADSKNSIYLQMNSLKTEDTAVYYCRYVHYAAGYGVDIWGQGTTVTVSSASTKGPSVFPLAPCSRSTSESTAALGCLVKDYFPEPVTVSWNSGALTSGVHTFPAVLQSSGLYSLSSVVTVPSSSLGTKTYTCNVDHKPSNTKVDKRVESKYGPPCPPCPAPEFRGGPKVFLFPPKPKDTLMISRTPEVTCVVVDVSQEDPEVQFNWYVDGVEVHNAKTKPREEQFASTYRVVSVLTVLHQDWLNGKEYKCKVSNKGLPSSIEKTISKAKGQPREPQVYTLPPSQKEMTKNQVSLTCLVKGFYPSDIAVEWESNGQPENNYKTTPPVLDSDGSFFLYSKLTVDKSRWQEGNVFSCSVMHEALHNHYTQKSLSLSP
light: DIVMTQSPLSLPVTPGEPASISCRSSQPLVHSNRNTYLHWYQQKPGQAPRLLIYKVSNRFSGVPDRFSGSGSGTDFTLKISRVEAEDVGVYYCGQGTQVPYTFGQGTKLEIKRTVAAPSVFIFPPSDEQLKSGTASVVCLLNNFYPREAKVQWKVDNALQSGNSQESVTEQDSKDSTYSLSSTLTLSKADYEKHKVYACEVTHQGLSSPVTKSFNRGEC
modifications: An artificially generated sequence
Question: Which “TDCC activity (LDH release)” value [1] does the source give for B1 here?
Answer: clearly observed

Question: And the immune cell infiltration (NCI-H446 tumor tissues; antibody 38 administered, six days after administration)?
Answer: observed around the tumor periphery

Question: What about the “immune cell infiltration area” value (NCI-H446 tumor tissues; antibody-38 in combination with paclitaxel) of the same molecule?
Answer: expanded

Question: What about the anti-tumor effect (PC-10 xenograft tumor) of the same molecule?
Answer: evident, dose-dependent anti-tumor effect
